# Laboratory results from US20260055369A1, “METHOD FOR GENERATING CELLS OF THE T CELL LINEAGE WITH ENGINEERING BROADLY REACTIVE HUMAN NOTCH LIGAND” (H. Lee Moffitt Cancer Center and Research Institute, Inc., priority 2022, published 2026).
# Tested on: Notch1
# Experiment: Notch activation with streptavidin-coated polystyrene beads (CHO-K1 N1-Gal4)
# Assay type: cell-based
# Details: 25 μm beads, ratio 1:1 with reporter cells
# Protocol: Biotinylated WT DLL4 or Delta^MAX (26 μg) were coated in 1.33 mg of streptavidin-coated polystyrene beads for 1 hour at 4° C. in DPBS+0.1% BSA. The beads were washed three times with 500 μL of DPBS+0.1% BSA before and after coating. DLL4 pre-coated beads were counted in the microscope and 100 μL containing 30,000 beads combined in ratio 1:1 with 100 μL of α-MEM with CHO-K1 N1-Gal4 reporter cell lines in 96-well tissue culture plates. The plate was incubated for 24 hours at 37° C., 5% CO2, and Notch activation measure by flow cytometry. The data represent Notch activation as a function of mean fluorescent intensity±s.d. of three biological replicates.
# Notch1, sequence (P46531 295-488 limits assumed): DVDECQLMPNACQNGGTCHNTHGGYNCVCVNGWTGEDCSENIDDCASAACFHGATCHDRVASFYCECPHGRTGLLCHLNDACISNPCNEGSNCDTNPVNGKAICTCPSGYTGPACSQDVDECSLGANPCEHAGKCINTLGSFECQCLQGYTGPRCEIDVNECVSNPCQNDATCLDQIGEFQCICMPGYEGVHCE
molecule,measurement,value
Delta^MAX: engineered human DLL4 consensus variant with 10 mutations combining DLL4.v1 and DLL4.v2 mutations; sequence matches SEQ ID NO: 4/10 (protein) SSVFQLQLQEFINERGVLASGRPCEPGCRTFFRVCLKHFQAVVSPGPCTFGTVSTPVLGTNSFAVRDDSSGGGRNPLQLPLNFTWPGTFSLIIEAWHAPGDDLRPEALPPDALISKFAIQGSLAVGQNWLLDEQTSTLTRLRYSYRVICSDNYYGDNCSRLCKKRNDYFGHYVCQPDGNPSCLPGWTGEYCQQPICLSGCHEQNGYCSKPAECLCRPGWQGRLCNECIPHPGCRHGTCSTPWQCLCDEGWGGLYCDQDLNYCTHHSPCKNGATCRNSGPRSYTCTCRPGYTGVDCELELSECDSNPCRNGGSCKDQEDGYHCLCPPGYYGLHCEHSTLSCADSPCFNGGSCRERNQGANYACECPPNFTGSNCE,reporter activity vs DLL4 microbeads,4.5 fold
